Experimental data taken from patent publication EP1407030B1.

Target: plasminogen
Experiment: cell-based or functional assay

“phage-displayed recombinant K2S (K2S-gp3 fusion protein on VCSM13 filamentous phage) (from UniProt P00750 209-562)” was tested, and the fibrinogen-dependent enzymatic activity (amidolytic assay with plasminogen and S-2251) was < 0.25 IU/ml.
